Assay results taken from publication PMC10631449 (Journal of medicinal chemistry, 2023).
Bridge positions count the residues as written; N and C are the ends. Square brackets hold non-standard residues; d marks the D form. Peptide text beside a SMILES is read from it. dPhe(4-I) = N[C@H](Cc1ccc(I)cc1)C(=O)O; 2Nal = N[C@@H](Cc1ccc2ccccc2c1)C(=O)O; hArg = N=C(N)NCCCC[C@H](N)C(=O)O; Cit = NC(=O)NCCC[C@H](N)C(=O)O; Nle = CCCC[C@H](N)C(=O)O; Orn = NCCC[C@H](N)C(=O)O; Dab = NCC[C@H](N)C(=O)O; Dap = NC[C@H](N)C(=O)O

How the values were obtained:
[1] = molecular target: mouse melanocortin 4 receptor (mouse) (UniProt P56450)
Sequence of mouse melanocortin 4 receptor (mouse) (P56450 whole entry): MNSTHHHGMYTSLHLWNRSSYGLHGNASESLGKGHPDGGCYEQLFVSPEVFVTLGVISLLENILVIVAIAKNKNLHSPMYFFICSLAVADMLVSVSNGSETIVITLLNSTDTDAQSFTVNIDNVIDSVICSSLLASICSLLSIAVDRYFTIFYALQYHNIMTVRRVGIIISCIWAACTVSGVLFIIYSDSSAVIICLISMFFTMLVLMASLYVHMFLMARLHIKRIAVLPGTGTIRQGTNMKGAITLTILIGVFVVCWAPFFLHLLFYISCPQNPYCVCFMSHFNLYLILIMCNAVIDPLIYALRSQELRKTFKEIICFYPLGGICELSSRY

[2] = molecular target: mouse melanocortin 1 receptor (mouse) (UniProt Q01727)
Sequence of mouse melanocortin 1 receptor (mouse) (Q01727 whole entry): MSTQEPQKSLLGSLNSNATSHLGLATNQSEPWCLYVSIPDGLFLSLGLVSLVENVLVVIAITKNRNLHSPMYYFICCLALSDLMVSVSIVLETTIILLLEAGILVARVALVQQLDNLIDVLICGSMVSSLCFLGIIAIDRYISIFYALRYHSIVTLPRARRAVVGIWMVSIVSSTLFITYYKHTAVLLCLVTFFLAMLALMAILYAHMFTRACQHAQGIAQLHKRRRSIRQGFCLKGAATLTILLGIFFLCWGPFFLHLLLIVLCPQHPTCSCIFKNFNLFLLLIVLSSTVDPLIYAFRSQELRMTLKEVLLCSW

[3] = molecular target: mouse melanocortin 3 receptor (mouse) (UniProt P33033)
Sequence of mouse melanocortin 3 receptor (mouse) (P33033 whole entry): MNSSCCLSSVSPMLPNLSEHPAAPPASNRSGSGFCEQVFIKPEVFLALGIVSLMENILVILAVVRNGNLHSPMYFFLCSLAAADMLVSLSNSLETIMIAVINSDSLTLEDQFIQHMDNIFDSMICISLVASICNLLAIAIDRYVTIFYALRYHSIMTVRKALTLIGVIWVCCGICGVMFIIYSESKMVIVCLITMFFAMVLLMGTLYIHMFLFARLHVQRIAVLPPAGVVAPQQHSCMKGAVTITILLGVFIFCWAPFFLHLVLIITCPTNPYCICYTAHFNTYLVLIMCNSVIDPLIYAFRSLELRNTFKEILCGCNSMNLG

[4] = molecular target: mouse melanocortin 5 receptor (mouse) (UniProt P41149)
Sequence of mouse melanocortin 5 receptor (mouse) (P41149 whole entry): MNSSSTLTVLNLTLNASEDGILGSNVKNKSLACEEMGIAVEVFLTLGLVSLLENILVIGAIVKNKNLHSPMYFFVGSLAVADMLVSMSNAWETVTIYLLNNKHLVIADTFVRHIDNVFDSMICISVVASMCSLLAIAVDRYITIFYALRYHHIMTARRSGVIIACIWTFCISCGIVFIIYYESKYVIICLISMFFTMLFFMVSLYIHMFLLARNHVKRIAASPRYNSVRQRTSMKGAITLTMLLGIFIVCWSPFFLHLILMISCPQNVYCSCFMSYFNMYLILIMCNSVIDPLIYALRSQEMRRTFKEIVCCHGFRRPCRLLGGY

hMC1R = conditions: read-out: antagonist Ki hMC1R; competitive antagonist; cited from earlier work
[5] = Body weight after intrathecal; type: in vivo; conditions: t = 0, 24 and 48 h; 10 or 15 nmol/mouse IT
MC1R = MC1R antagonist; cited from earlier work
mMC1R = mMC1R (Mus musculus, UniProt Q01727); conditions: cited from earlier work
Sequence of mMC1R (Q01727 whole entry): as the sequence (Q01727 whole entry) above

K5-noggin mice = conditions: administered intracutaneously; cited from earlier work
mMC5R = mMC5R (Mus musculus, UniProt P41149); conditions: read-out: antagonist Ki mMC5R; cited from earlier work
Sequence of mMC5R (P41149 whole entry): as the sequence (P41149 whole entry) above

mMC3R = mMC3R (Mus musculus, UniProt P33033); assay: AlphaScreen cAMP agonist assay, HEK293 cells stably expressing mMC3R; type: cell-based
Sequence of mMC3R (P33033 whole entry): as the sequence (P33033 whole entry) above

For Ac-[dPhe(4-I)]R[2Nal][Cit]-NH2, the agonist EC50, cAMP AlphaScreen on HEK293 cells expressing the receptor [1] was > 100 µM, the agonist EC50, cAMP AlphaScreen on HEK293 cells expressing the receptor [2] was > 100 µM and the agonist EC50, cAMP AlphaScreen on HEK293 cells expressing the receptor [3] was > 100 µM. The agonist EC50, cAMP AlphaScreen on HEK293 cells expressing the receptor [4] was > 100 µM.

For Ac-[dPhe(4-I)]E[2Nal]R-NH2, the agonist EC50, cAMP AlphaScreen on HEK293 cells expressing the receptor [1] was > 100 µM, the agonist EC50, cAMP AlphaScreen on HEK293 cells expressing the receptor [2] was > 100 µM and the agonist EC50, cAMP AlphaScreen on HEK293 cells expressing the receptor [3] was > 100 µM. The agonist EC50, cAMP AlphaScreen on HEK293 cells expressing the receptor [4] was > 100 µM.

For “c[Gly-Cpg-DNal(2’)-Arg-Trp-Glu]-Val-Val-Gly-NH2”, the Ki (hMC1R) is listed as 0.053 µM.

In the case of Ac-[dPhe(4-I)]R[2Nal]K-NH2, the agonist EC50, cAMP AlphaScreen on HEK293 cells expressing the receptor [1] is reported as > 100 µM, the agonist EC50, cAMP AlphaScreen on HEK293 cells expressing the receptor [3] is reported as > 100 µM and the agonist EC50, cAMP AlphaScreen on HEK293 cells expressing the receptor [4] is reported as > 100 µM.

With Ac-[dPhe(4-I)]H[2Nal]R-NH2 the agonist EC50, cAMP AlphaScreen on HEK293 cells expressing the receptor [1] was > 100 µM, the agonist EC50, cAMP AlphaScreen on HEK293 cells expressing the receptor [3] was > 100 µM and the agonist EC50, cAMP AlphaScreen on HEK293 cells expressing the receptor [4] was > 100 µM.

In the case of Ac-[dPhe(4-I)]R[2Nal]R-NH2, the agonist EC50, cAMP AlphaScreen on HEK293 cells expressing the receptor [4] is reported as > 100 µM.

In the case of Ac-[dPhe(4-I)][Cit][2Nal]R-NH2, the agonist EC50, cAMP AlphaScreen on HEK293 cells expressing the receptor [1] is reported as > 100 µM, the agonist EC50, cAMP AlphaScreen on HEK293 cells expressing the receptor [3] is reported as > 100 µM and the agonist EC50, cAMP AlphaScreen on HEK293 cells expressing the receptor [4] is reported as > 100 µM.

For `CC(=O)N[C@H](Cc1ccc(I)cc1)C(=O)N[C@@H](CCCNC(=N)N)C(=O)N[C@@H](Cc1ccc2ccccc2c1)C(=O)N[C@@H](CCCN)C(N)=O` [Peptide 14, Ac-DPhe(pI)-Arg-Nal(2’)-Orn-NH2] (Ac-[dPhe(4-I)]R[2Nal][Orn]-NH2), the “body weights compared to vehicle” value [5] was “not statistically significantly different”.

In the case of Ac-[dPhe(4-I)]R[2Nal][dR]-NH2, the agonist EC50, cAMP AlphaScreen on HEK293 cells expressing the receptor [1] is reported as > 100 µM, the agonist EC50, cAMP AlphaScreen on HEK293 cells expressing the receptor [2] is reported as > 100 µM and the agonist EC50, cAMP AlphaScreen on HEK293 cells expressing the receptor [3] is reported as > 100 µM. The agonist EC50, cAMP AlphaScreen on HEK293 cells expressing the receptor [4] was > 100 µM.

For Ac-[dPhe(4-I)]R[2Nal][Orn]-NH2, the agonist EC50, cAMP AlphaScreen on HEK293 cells expressing the receptor [1] was > 100 µM, the agonist EC50, cAMP AlphaScreen on HEK293 cells expressing the receptor [3] was > 100 µM and the agonist EC50, cAMP AlphaScreen on HEK293 cells expressing the receptor [4] was > 100 µM.

With Ac-[dPhe(4-I)][dK][2Nal]R-NH2 the agonist EC50, cAMP AlphaScreen on HEK293 cells expressing the receptor [1] was > 100 µM, the agonist EC50, cAMP AlphaScreen on HEK293 cells expressing the receptor [2] was > 100 µM and the agonist EC50, cAMP AlphaScreen on HEK293 cells expressing the receptor [3] was > 100 µM. The agonist EC50, cAMP AlphaScreen on HEK293 cells expressing the receptor [4] was > 100 µM.

For Ac-[Nle]DW[dF][Nle]WK-NH2, the “pA2 in the frog skin assay” value (MC1R) is given as 8.4.

In the case of H-YERFFNAF[Dap]Y-NH2 (lactam 2-9), the “pA2 mMC1R” value (mMC1R) is given as 5.92, the Ki (mMC1R; read-out: antagonist Ki mMC1R) is given as 1.2 µM and the “coloration of K5-noggin mice” value (K5-noggin mice) is given as “restored wild-type coloration”.

In the case of “Ac-Nle-c[Asp-(1-Me)His-DNal(2’)-Arg-DNal(2’)-Lys]-NH2”, the Ki (mMC5R) is listed as 0.063 µM.

With Ac-[dPhe(4-I)]K[2Nal]R-NH2 the agonist EC50, cAMP AlphaScreen on HEK293 cells expressing the receptor [1] was > 100 µM, the agonist EC50, cAMP AlphaScreen on HEK293 cells expressing the receptor [3] was > 100 µM and the agonist EC50, cAMP AlphaScreen on HEK293 cells expressing the receptor [4] was > 100 µM.

With Ac-[dPhe(4-I)]R[2Nal][Dap]-NH2 the agonist EC50, cAMP AlphaScreen on HEK293 cells expressing the receptor [1] was > 100 µM, the agonist EC50, cAMP AlphaScreen on HEK293 cells expressing the receptor [3] was > 100 µM and the agonist EC50, cAMP AlphaScreen on HEK293 cells expressing the receptor [4] was > 100 µM.

In the case of Ac-[dPhe(4-I)]R[2Nal][dK]-NH2, the agonist EC50, cAMP AlphaScreen on HEK293 cells expressing the receptor [1] is reported as > 100 µM, the agonist EC50, cAMP AlphaScreen on HEK293 cells expressing the receptor [2] is reported as > 100 µM and the agonist EC50, cAMP AlphaScreen on HEK293 cells expressing the receptor [3] is reported as > 100 µM. The agonist EC50, cAMP AlphaScreen on HEK293 cells expressing the receptor [4] was > 100 µM.

For Ac-[dPhe(4-I)]R[2Nal]H-NH2, the agonist EC50, cAMP AlphaScreen on HEK293 cells expressing the receptor [1] was > 100 µM and the agonist EC50, cAMP AlphaScreen on HEK293 cells expressing the receptor [4] was > 100 µM.

For `CC(=O)N[C@H](Cc1ccc(I)cc1)C(=O)N[C@@H](CCCNC(=N)N)C(=O)N[C@@H](Cc1ccc2ccccc2c1)C(=O)N[C@@H](Cc1c[nH]cn1)C(N)=O` [Peptide 12, Ac-DPhe(pI)-Arg-Nal(2’)-His-NH2] (Ac-[dPhe(4-I)]R[2Nal]H-NH2), the “percent maximal stimulatory response (compared to NDP-MSH) observed at 100 μM, mMC3R” value (mMC3R) was 35% @ 100 μM.

With Ac-[dPhe(4-I)]R[2Nal][hArg]-NH2 the agonist EC50, cAMP AlphaScreen on HEK293 cells expressing the receptor [1] was > 100 µM, the agonist EC50, cAMP AlphaScreen on HEK293 cells expressing the receptor [3] was > 100 µM and the agonist EC50, cAMP AlphaScreen on HEK293 cells expressing the receptor [4] was > 100 µM.

With Ac-[dPhe(4-I)]R[2Nal]E-NH2 the agonist EC50, cAMP AlphaScreen on HEK293 cells expressing the receptor [1] was > 100 µM, the agonist EC50, cAMP AlphaScreen on HEK293 cells expressing the receptor [2] was > 100 µM and the agonist EC50, cAMP AlphaScreen on HEK293 cells expressing the receptor [3] was > 100 µM. The agonist EC50, cAMP AlphaScreen on HEK293 cells expressing the receptor [4] was > 100 µM.

With Ac-[dPhe(4-I)]R[2Nal][Dab]-NH2 the agonist EC50, cAMP AlphaScreen on HEK293 cells expressing the receptor [1] was > 100 µM, the agonist EC50, cAMP AlphaScreen on HEK293 cells expressing the receptor [3] was > 100 µM and the agonist EC50, cAMP AlphaScreen on HEK293 cells expressing the receptor [4] was > 100 µM.
